Target: human GITR on cells (activated human T cells; 3A9-hGITR cells) (human) (UniProt Q9Y5U5)
Assay: flow cytometry on anti-CD3/CD28-activated human CD4 T cells, GMFI (PE); fitted value of a flat control curve, unit from the axis

Sequence of human GITR on cells (activated human T cells; 3A9-hGITR cells) (human) (Q9Y5U5 26-241): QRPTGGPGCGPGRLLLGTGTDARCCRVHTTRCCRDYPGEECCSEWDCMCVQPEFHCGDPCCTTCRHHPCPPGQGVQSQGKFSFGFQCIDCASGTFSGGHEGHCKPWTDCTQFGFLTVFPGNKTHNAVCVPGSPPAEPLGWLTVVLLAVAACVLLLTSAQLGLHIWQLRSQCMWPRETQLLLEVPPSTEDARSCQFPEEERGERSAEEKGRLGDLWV

hIgG1 Isotype Control (antibody)
EC50: 132 nM

Reference: patent US20200268901A1
